Data as given in patent publication US20030166027A1, “Compositions, test kits and methods for detecting helicobacter pylori” (priority 2002, published 2003).

Assays:
[1] = test system: specific serum IgG antibodies in sera from patients diagnosed with a H. pylori infection; assay: Quantitative Western-blot analysis (integrated optical density) of patient sera on H. pylori whole cell lysate antigens; format: binding, human; conditions: for average titer of specific antibodies / reduction of average titer: average of all strains (FIG. 4)
[2] = test system: sera from H. pylori infected patients; assay: Immunoblot analysis of whole cell lysates with sera from H. pylori infected patients; format: binding, human; conditions: one serum of an infected patient (HS#0 12, table 1)
Procedure: The protein content of the bacterial lysates was determined by the method according to Lowry (Lowry et al., 1951) with bovine serum albumin as a standard. The lysates were dried in a speedVac concentrator. Afterwards the pellets were suspended in gel sample buffer (4% SDS, 12% glycerin, 4% β-mercaptoethanol, 0.01% Serva Blue G250 in 50 mM Tris/HCl pH 6.8) and boiled for 10 min. H. pylori and C. jejuni lysates were separated on 1.0 or 1.5 mm 7.5-16.5% SDS-tricine gradient gels (Schaegger and v. Jagow, 1987). Therefore a 7.5% and a 16.5% acrylamide solution for the separating gel and a 4% acrylamide solution for the stacking gel were prepared according to the scheme presented in table 3. Using a gradient-mixer the gel was poured slowly, but with continuous flow between the glass plates of the gel-sandwich. The separating gel was overlaid with deonized H2O and allowed to polymerize for 1 hr. Afterwards the water was removed, APS and TEMED was added to the stacking gel solution that was poured on top of the separating gel. A comb with the appropriate number of sample pockets was inserted and removed after polymerisation for 1 hr. The gel-sandwich was placed in an electrophoresis chamber half filled with bottom running buffer (0.2 M Tris-HCI, pH 8.9). […] The protein pattern after electrophoresis was determined by Silver staining (Heukeshoven, 1985) or Coomassie blue staining. […]

[3] = antigens from Hp02 (FIG. 3), sera 3 months post therapy
[4] = antigens from Hp02 (FIG. 3), sera 5 months post therapy
[5] = antigens from Hp02 (FIG. 3), sera before therapy, set as 100%
[6] = antigens from Hp08 (FIG. 2), sera 3 months post therapy
[7] = antigens from Hp08 (FIG. 2), sera 5 months post therapy
[8] = antigens from Hp08 (FIG. 2), sera before therapy, set as 100%
[9] = antigens from Hp504, first experiment (FIG. 1A), sera 3 months post therapy
[10] = antigens from Hp504, first experiment (FIG. 1A), sera 5 months post therapy
[11] = antigens from Hp504, first experiment (FIG. 1A), sera of 9 patients before therapy, set as 100%
[12] = antigens from Hp504, second experiment (FIG. 1B), sera 3 months post therapy
[13] = antigens from Hp504, second experiment (FIG. 1B), sera 5 months post therapy
[14] = antigens from Hp504, second experiment (FIG. 1B), sera before therapy, set as 100%
[15] = 3 months after eradication treatment
[16] = 5 months after end of treatment

Molecule | % IOD [1, 3] | % IOD [1, 4] | % IOD [1, 5] | % IOD [1, 6] | % IOD [1, 7] | % IOD [1, 8] | % IOD [1, 9] | % IOD [1, 10] | % IOD [1, 11] | % IOD [1, 12] | % IOD [1, 13] | % IOD [1, 14] | average titer of specific antibodies [1, 15] | reduction of average titer [1, 15] | average titer of specific antibodies [1, 16] | reduction of average titer [1, 16] | reaction with serum HS#0 12 [2]
Omp18-peptido-glycan associated lipoprotein precursor (protein, 30 kd H. pylori antigen band in whole cell lysate, identified as Omp18) MKRSSVFSFLVAFLLVAGCSHKMDNKTVAGDVSAKTVQTAPVTTEPAPEKEEPKQEPAPVVEEKPAVESGTIIASIYFDFDKYEIKESDQETLDEIVQKAKENHMQVLLEGNTDEFGSSEYNQALGVKRTLSVKNALVIKGVEKDMIKTISFGETKPKCAQKTRECYKENRRVDVKLMK | 50.71 +/− 11.48% | 21.56 +/− 6.44% | 100% | 62.53 +/− 10.32% | 40.77 +/− 4.45% | 100% | 32.08 +/− 6.48% | 20.71 +/− 12.72% | 100% | 53.58% | 41.28% | 100% | 49.73% | 50.27% | 31.08% | 68.92% | –
RPL7/L12 50S ribosomal protein L7/L12 (protein, 15 kd H. pylori antigen band in whole cell lysate, identified as RPL7/L12) MNISVNPYLMAVVFVVFVLLLWAMNVWVYRPLLAFMDNRQAEIKDSLAKIKTDNAQSVEIGHQIEALLKEAAEKRREIIAEAIQKATESYDAVIKQKENELNQEFEAFAKQLQNEKQALKEQLQAQMPVFEDELNKRVAMGLGS | 36.29 +/− 14.99% | 11.39 +/− 4.27% | 100% | 28.60 +/− 13.85% | 9.96 +/− 4.99% | 100% | 37.86 +/− 8.98% | 15.37 +/− 6.68% | 100% | 46.17 +/− 16.87% | 19.77 +/− 11.11% | 100% | 31.61% | 68.39% | 14.12% | 85.88% | did not react
HP0596 a hypothetical protein (protein, 23 kd H. pylori antigen band in whole cell lysate, identified as HP0596) MLEKSFLKSKQLFLCGLGVLMLQACTCPNTSQRNSFLQDVPYWMLQNRSEYITQGVDSSHIVDGKKTEEIEKIATKRATIRVAQNIVHKLKEAYLSKTNRIKQKITNEMFIQMTQPIYDSLMNVDRLGIYINPNNEEVFALVRARGFDKDALSEGLHKMSLDNQAVSILVAKVEEIFKDSVNYGDVKVPIAM | 35.86 +/− 11.88% | 13.51 +/− 5.02% | 100% | 23.05 +/− 7.53% | 11.36 +/− 4.45% | 100% | 33.88 +/− 10.59% | 23.81 +/− 7.83% | 100% | 52.37 +/− 12.72% | 34.77 +/− 9.61% | 100% | 36.29% | 63.71% | 28.87% | 79.13% | –
HpaA-neuraminyl-lactose-hemagglutinin precursor (protein, 32 kd H. pylori antigen band in whole cell lysate, identified as HpaA) MKKGSLAIVLGSLLASGAFYTALADGMPAKQQHNNTGESVELHFHYPIKGKQEPKNSHLVVLIEPKIEINKVIPESYQKEFEKSLFLQLSSFLERKGYSVSQFKDASEIPQDIKEKALLVLRMDGNVAILEDIVEESDALSEEKVIDMSSGYLNLNFVEPKSEDIIHSFGIDVSKIKAVIERVELRRTNSGGFVPKTFVHRIKETDHDQAIRKIMNQAYHKVMVHITKELSKKHMEHYEKVSSEMKKRK | 32.30 +/− 13.97% | 8.70 +/− 3.2% | 100% | 48.11 +/− 8.15% | 21.06 +/− 8.01% | 100% | 41.61 +/− 9.25% | 15.15 +/− 4.20% | 100% | 32.15% | 27.2% | 100% | 38.5% | 61.5% | 18.03% | 81.97% | –
